From publication PMC10023864
Where two headings read alike, the source gives them in different places.

Tests used:
[1] = biological target: T1, hnRNPK KH3 (Homo sapiens, UniProt P61978 384-463); experiment: ITC
[2] = biological target: T1, hnRNPK KH3; experiment: ITC; remark: listed apart in the source

T1 sequence (P61978 384-463): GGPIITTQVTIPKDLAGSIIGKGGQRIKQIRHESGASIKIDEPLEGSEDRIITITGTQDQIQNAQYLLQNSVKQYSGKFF

Row | Binder | Kd [1] | Kd [2] | binding result [1]
1 | CUCCCGC (ssRNA) [heptamer RNA] | 4.31 ± 0.68 µM | 4.74 ± 1 µM | 
2 | CUAAAGC (ssRNA) [mutant heptamer RNA] |  |  | no binding
